Consider 167 variants from the RNAGym collection of RNA variant scans (doi:10.7554/elife.80360).

B1: CPEB3 Ribozyme (parent)
chain: GGGGGCCACAGCAGAAGCGUUCACGUCGCGGCCCCUGUCAGAUUCUGGUGAAUCUGCGAAUUCUGCUGU

Variants of B1 are the subject of this data set. The data set is described as follows: self-cleavage, relative activity (ratio to wild type); higher = more cleavage; co-transcriptional.
Regarding G48U A59G, the self-cleavage came to 0.993. Consider U44G A59C, for which the self-cleavage worked out at 0.629. In the case of U46A U62A it was 0.937. U49A U53C: the self-cleavage is 0.991. In the case of U46G U49G it was 0.972; in that of U44C U67C, 0.937.

G48U U53A: the self-cleavage stood at 1.

As to U44G U49A, the self-cleavage stood at 0.935. As for U44G U49C, the self-cleavage came out at 0.901. In the case of U46A U61A it was 0.982; in that of U46A C54U, 0.973. In the case of C45G C66A it was 0.767; in that of C45G C66U, 0.961; in that of G47C U64C, 0.956. In the case of G48U A60U it was 0.561. Consider C45U U67G, for which the self-cleavage amounted to 1.02. Under C45U U67A stands 1.01; under U46C G68U, 1.02; under U46C G50U, 0.984.

As for G47A C57G, the self-cleavage came to 0.303. In the case of U46A G50U it was 0.977; in that of U49A G68U, 0.982. U49A G65U: the self-cleavage was found to be 0.821.

As for U49A C63U, the self-cleavage is 0.94. Under C45G U53A stands 0.921; under G48A G56U, 0.972; under U44C U62A, 0.728.

With C45A G48A, the self-cleavage stood at 1.02. Turning to G47A G58U, the self-cleavage was 0.995. Under G48C C54G stands 0.919; under G48C C54A, 0.921; under G48A G68A, 1.01. In the case of G48A G68U it was 1.01.

As for U46G G68A, the self-cleavage worked out at 1.01. Under U46A G68U stands 0.988; under C45U A59C, 0.72; under U44C U46G, 0.98. In the case of G48C A59U it was 0.861. Turning to C45G U69G, the self-cleavage came to 1.05. With U46G G65U, the self-cleavage stood at 0.913. In the case of U46G G65A it was 0.928.

For U46G U69A, the self-cleavage came to 1.01. With U46G U69G, the self-cleavage was 1.04.

For the variant G47A U67A, the self-cleavage came to 0.969. Under G47A G48U stands 1.03; under G47U U64A, 0.904; under G47U U64C, 0.943. For the variant C45A A51U, the self-cleavage worked out at 0.931. In the case of U44G U62G it was 0.777. Take U44G U62A: the self-cleavage was found to be 0.908. Take G47U U62A: the self-cleavage was 0.983. U44G C45U: the self-cleavage stood at 0.945.

U44G C45G: the self-cleavage amounted to 0.855. With U49A G58A, the self-cleavage came to 1.01. In the case of U44G U61A it was 0.808. Regarding G48A U53C, the self-cleavage amounted to 0.958. Take G48A U53A: the self-cleavage amounted to 1.03.

Consider G48A U53G, for which the self-cleavage was found to be 0.987. In the case of G47A C63U it was 1.02; in that of G47A C63G, 0.922. Turning to C45U G68A, the self-cleavage came out at 1.02. With G47C G50A, the self-cleavage came to 0.965. Regarding U46A G65C, the self-cleavage turned out to be 0.601. Regarding U46A G65A, the self-cleavage is 0.954. As for G47C C63A, the self-cleavage is 0.944.

Take G47C C63G: the self-cleavage is 0.891. For the variant U46G G56A, the self-cleavage amounted to 0.941. Regarding C45U G56A, the self-cleavage stood at 0.943.

For G48U C54A, the self-cleavage was found to be 0.994.

Consider G48U C54U, for which the self-cleavage was found to be 1.02. Take C45A C54A: the self-cleavage came out at 0.603. Under C45U G58A stands 0.972. In the case of C45U G58U it was 1.01; in that of C45U G58C, 1.01.

For U44C G65A, the self-cleavage turned out to be 0.519. Under U44C G65U stands 0.488. Under G47U C54G stands 0.975; under C45A C57A, 0.359; under C45A C57U, 0.374. Regarding U49A U55C, the self-cleavage turned out to be 0.895.

For C45A A59G, the self-cleavage was 0.971. In the case of G48C G56U it was 0.962; in that of C45A A52C, 0.908. In the case of C45A A52G it was 0.97.

Consider G48A A51G, for which the self-cleavage is 1.03. On to U49A G56C, for which the self-cleavage came out at 0.765.

U46G G48A: the self-cleavage came to 1.01. Under U46G G48C stands 0.994; under U46G G48U, 1.01. Under G48C U69G stands 1.05; under G48C U69A, 1.01; under C45U A51G, 1.01.

For the variant U46C C57U, the self-cleavage was determined as 0.279. In the case of U46C C57G it was 0.361.

For U49A C57U, the self-cleavage was 0.379. Regarding C45U U62G, the self-cleavage was 0.847. With C45U U62C, the self-cleavage was 0.895. In the case of G47C C66U it was 1. For G47U A52C, the self-cleavage is 1.02. Consider G47U A52G, for which the self-cleavage turned out to be 0.987. In the case of G48C U62A it was 0.994; in that of G48C U62C, 0.946; in that of U44G G48A, 0.963. As to U44G G48U, the self-cleavage turned out to be 0.986. In the case of C45A G50C it was 0.931; in that of C45A G50U, 1.04. Under G47A U61A stands 0.941; under U46A U53G, 0.931. Under U46A U53A stands 0.989; under U46A U53C, 0.971; under C45G G56C, 0.469. On to C45G G56U, for which the self-cleavage worked out at 0.722.

On to U49A A52U, for which the self-cleavage came to 1.02. In the case of U49A A52C it was 1; in that of U44C C63A, 0.542. Under G47C A51U stands 1.02; under G47C A51G, 1. Under G47C U69A stands 0.99; under G47C U69G, 1.06. Take U44G G56C: the self-cleavage came out at 0.44. In the case of U44G G56A it was 0.822.

As for U49A C66U, the self-cleavage came to 0.998.

In the case of G47A G65A, the self-cleavage worked out at 0.936. Under C45G U49A stands 0.987; under G47U G68A, 0.991; under G47U G68C, 1.01.

Regarding G47U G68U, the self-cleavage was 1.01. For the variant G47C U62C, the self-cleavage is 0.91. For the variant U46A C57A, the self-cleavage amounted to 0.434. Under C45A G47U stands 0.986.

C45A G47C: the self-cleavage came to 0.995.

With C45A G47A, the self-cleavage was found to be 0.999.

Consider G47U A51G, for which the self-cleavage stood at 0.998. Take G47C G48U: the self-cleavage was determined as 0.995.

Turning to G47C G48C, the self-cleavage came to 1.05.

Turning to C45A U49A, the self-cleavage was 0.997. C45A U49G: the self-cleavage amounted to 1.01. U46C C54U: the self-cleavage worked out at 0.975. In the case of G48C U53A it was 0.968; in that of C45G C54A, 0.579; in that of U46A U69G, 1.03. In the case of G47U U49C it was 0.991; in that of G47U U49A, 1.01; in that of C45G U67G, 1.01. Under U46C G56C stands 0.785; under U46C G56A, 0.933.

Regarding U46C A60G, the self-cleavage was 0.88. As for U46G C54A, the self-cleavage was 0.845. Under U46G C54U stands 0.992; under G48U C57G, 0.398; under G48U C57U, 0.388.

In the case of U44G U64A, the self-cleavage was 0.662. For G48A U49A, the self-cleavage was determined as 0.984.

Regarding G48C C57U, the self-cleavage was 0.32.

As to G47A U69C, the self-cleavage was 1.06. With U44C U64C, the self-cleavage worked out at 0.565. Take G47A C54U: the self-cleavage came out at 0.972.

As for U46A, the self-cleavage worked out at 1. Under U46C stands 0.986; under U46G, 0.994. Under G47A G68C stands 1.

With C45G A52G, the self-cleavage amounted to 0.989. Under C45G A52U stands 0.998; under U46C U61C, 0.788. Under U46C U61G stands 0.856. As for U46G A52G, the self-cleavage was 0.992. In the case of U46G A52C it was 0.942.
